Earlier results on one substance are cited in article PMC4153603.

As a reminder, the Kd is the equilibrium constant for the complex coming apart.

One data set has as its target Kv1.1 (Homo sapiens) (UniProt Q09470).
For a further data set, the target named is Kv1.3 (Homo sapiens) (UniProt P22001).
UniProt P22001, sequence (P22001 whole entry): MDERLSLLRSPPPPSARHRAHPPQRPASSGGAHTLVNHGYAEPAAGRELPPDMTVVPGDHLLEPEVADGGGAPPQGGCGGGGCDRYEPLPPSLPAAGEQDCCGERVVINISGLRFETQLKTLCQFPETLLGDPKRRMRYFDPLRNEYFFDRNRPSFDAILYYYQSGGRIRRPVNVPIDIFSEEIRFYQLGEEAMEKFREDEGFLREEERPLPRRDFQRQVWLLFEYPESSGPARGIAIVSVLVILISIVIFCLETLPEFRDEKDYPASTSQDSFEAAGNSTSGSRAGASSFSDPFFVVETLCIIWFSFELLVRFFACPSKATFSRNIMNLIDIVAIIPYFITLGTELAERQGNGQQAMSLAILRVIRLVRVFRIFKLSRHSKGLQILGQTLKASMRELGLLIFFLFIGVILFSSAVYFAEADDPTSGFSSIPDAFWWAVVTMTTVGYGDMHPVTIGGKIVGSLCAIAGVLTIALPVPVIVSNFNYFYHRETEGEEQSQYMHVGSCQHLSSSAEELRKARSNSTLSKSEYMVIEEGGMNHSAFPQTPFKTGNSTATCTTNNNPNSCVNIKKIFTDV

UniProt Q09470, sequence (Q09470 whole entry): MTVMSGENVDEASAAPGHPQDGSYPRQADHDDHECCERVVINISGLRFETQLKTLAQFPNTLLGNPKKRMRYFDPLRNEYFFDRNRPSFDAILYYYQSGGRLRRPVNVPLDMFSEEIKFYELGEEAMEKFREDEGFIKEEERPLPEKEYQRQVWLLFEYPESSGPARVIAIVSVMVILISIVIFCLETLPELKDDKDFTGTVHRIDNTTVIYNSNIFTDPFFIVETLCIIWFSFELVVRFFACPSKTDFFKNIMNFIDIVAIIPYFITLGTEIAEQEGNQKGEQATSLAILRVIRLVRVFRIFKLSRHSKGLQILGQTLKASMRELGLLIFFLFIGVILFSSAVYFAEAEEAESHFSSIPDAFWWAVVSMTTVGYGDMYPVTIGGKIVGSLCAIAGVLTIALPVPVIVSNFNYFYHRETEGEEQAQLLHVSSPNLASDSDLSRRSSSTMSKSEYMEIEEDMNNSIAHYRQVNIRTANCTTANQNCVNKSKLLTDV

On to ShK (from UniProt P29187), for which the Kd is 0.028 nM with Kv1.1 (Homo sapiens) and 0.01 nM with Kv1.3 (Homo sapiens).
